Patent US20110011742, “METHOD FOR THE PURIFICATION OF BIOLOGICAL MACROMOLECULES” (published 2011)

Assays:
Sp1 [1] = target: T1, Sp1 (UniProt P08047 P08047:2-785); assay: probe mixture, gel-separated complex hybridised to microarray; signal 0 at the tag-complementary spot Y-14 (Y-7t also 0); room temperature 30 min; settings: tags: Promega recombinant; label: 5'-Cy3 on YZ-7f (microarray); partially double-stranded, 3' single-strand tag on YZ-7f
Method: (§1) The Sp1 protein was mixed with a group of Cy3 labeled probes (YZ-7, YZ-9 and YZ-11) at room temperature for 30 minutes and then the protein/DNA complex was separated on the polyacrylamide column using the separation method described in Example 1. The collected protein/DNA complex was concentrated, the buffer changed to 5×SSC, 0.1% SDS, and the DNA hybridized to a microarray slide containing oligonucleotide DNA sequences shown in Table 2. Small amounts of YZ-2 and YZ-4 were added (shown in Table 3 and complementary to the sequences of YZ-1 and YZ-3). These sequences, shown in Table 3, serve as a positive control and reference signal. Only the Sp1 and control probes yielded positive signals (see Table 4). […] The microarray results (shown in Table 4) was consistent with the result from the gel shift assay.

Sp1 [2] = target: T1, Sp1; assay: probe mixture, gel-separated complex hybridised to microarray; signal 0 at Y-11t; room temperature 30 min; settings: tags: Promega recombinant; label: IRDye 700 (gel) or 5'-Cy3 on YZ-11f (microarray); partially double-stranded, 3' single-strand tag on YZ-11f
Method: as §1

T1 sequence (P08047 2-785, one chain of several): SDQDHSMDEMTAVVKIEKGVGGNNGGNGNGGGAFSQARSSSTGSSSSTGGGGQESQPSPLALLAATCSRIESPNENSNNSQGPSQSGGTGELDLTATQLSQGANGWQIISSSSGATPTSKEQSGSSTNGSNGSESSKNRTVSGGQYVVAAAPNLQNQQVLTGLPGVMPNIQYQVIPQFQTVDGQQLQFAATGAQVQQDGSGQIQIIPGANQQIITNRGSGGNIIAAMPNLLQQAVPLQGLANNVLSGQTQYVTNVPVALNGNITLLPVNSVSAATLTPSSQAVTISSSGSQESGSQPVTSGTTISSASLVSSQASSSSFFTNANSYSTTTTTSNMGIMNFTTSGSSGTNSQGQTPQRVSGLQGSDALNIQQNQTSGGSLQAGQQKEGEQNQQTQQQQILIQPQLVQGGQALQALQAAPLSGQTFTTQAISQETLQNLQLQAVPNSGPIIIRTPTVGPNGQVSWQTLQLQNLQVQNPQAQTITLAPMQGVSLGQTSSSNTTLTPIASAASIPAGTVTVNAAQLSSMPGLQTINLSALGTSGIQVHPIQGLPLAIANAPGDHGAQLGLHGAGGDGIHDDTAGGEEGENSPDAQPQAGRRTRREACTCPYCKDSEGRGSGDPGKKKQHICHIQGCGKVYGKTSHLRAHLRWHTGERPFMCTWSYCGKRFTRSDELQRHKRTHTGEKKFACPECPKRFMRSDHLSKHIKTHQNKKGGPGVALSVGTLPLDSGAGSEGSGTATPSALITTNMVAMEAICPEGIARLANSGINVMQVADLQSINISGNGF

Binder	binding result (Sp1 [1])	binding result (Sp1 [2])
YZ-7 (NF-kb probe) (dsDNA) DNA 1: TCCTAGCTTCAGAGGGGACTTTCCGAGAGGACCTGAAGAAATGGTTTTGAATCAT DNA 2: CCTCTCGGAAAGTCCCCTCTGAAGCTAGGA	no binding	–
YZ-11 (ER-alpha probe) (dsDNA) DNA 1: CCTGCCAGGTCGCGCTGCCCTCCTTCTACCATGCCTTAGGAGAATTGTTTTGTTT DNA 2: GGTAGAAGGAGGGCAGCGCGACCTGGCAGG	–	no binding
